Values joined by “and” are separate entries in the source; they are usually repeats but may differ in a detail not shown here. Equal values may be shown once.

Assay [1] addresses T1, hCD73-his (full length extracellular domain of human CD73, residues 26-546, C-terminal polyhistidine tag) (human, UniProt P21589 26-546).
T1 construct: range 26-546; not shown: C-terminal polyhistidine tag
T1 sequence (looked up): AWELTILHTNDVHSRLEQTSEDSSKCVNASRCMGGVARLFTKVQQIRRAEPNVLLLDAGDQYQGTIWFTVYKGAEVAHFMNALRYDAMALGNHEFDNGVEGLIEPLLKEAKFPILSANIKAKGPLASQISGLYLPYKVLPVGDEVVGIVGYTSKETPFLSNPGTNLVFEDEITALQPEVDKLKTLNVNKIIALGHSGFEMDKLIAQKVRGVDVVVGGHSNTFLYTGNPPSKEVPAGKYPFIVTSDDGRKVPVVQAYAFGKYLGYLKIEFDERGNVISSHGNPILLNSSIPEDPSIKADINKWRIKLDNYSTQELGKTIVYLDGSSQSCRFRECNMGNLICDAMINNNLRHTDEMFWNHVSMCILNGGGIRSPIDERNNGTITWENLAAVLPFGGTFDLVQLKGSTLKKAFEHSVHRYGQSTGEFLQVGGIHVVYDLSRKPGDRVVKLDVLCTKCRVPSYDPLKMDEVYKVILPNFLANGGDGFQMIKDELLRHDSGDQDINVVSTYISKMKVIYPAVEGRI
Put plainly: SEC, 5.5 uM each; peak 4: free mAb. The procedure: (§1) Isocratic separations were performed on a Shodex PROTEIN KW-803 column connected to an Prominence Shimadzu UFLC in buffer containing 200 mM K₂HPO₄, 150 mM NaCl, pH 6.8, containing 0.02% Na azide (0.1 μm filtered) running at 0.5 mL/min. Samples were injected onto the column using a SIL-20AC Prominence Shimadzu autosampler, and data were obtained from three online detectors connected in series: a Prominence SPD-20AD diode array UV/vis spectrophotometer followed by a Wyatt miniDAWN™ TREOS Multi-Angle Light Scattering Detector then a Wyatt Optilab T-rEX Refractive Index Detector. Data were collected and analyzed using Astra (Wyatt) and Labsolutions (Shimadzu) software.
(§2) CD73.4 antibodies having the heavy chain constant regions set forth in Table 14 were also tested for formation of high molecular weight complexes by SEC-MALS and DLS experiments, as described in Example 3.

Assay [2] has as its target T1, hCD73-his (full length extracellular …). Put plainly: SEC, 5.5 uM each; peak 1: complexes larger than 4:4. As to the method: as §1, with “The oligomeric state of CD73/antibody complexes were examined by size-exclusion chromatography coupled to an in-line multi-angle light scattering detector (SEC-MALS). Isocratic” for “Isocratic”
as §2

Assay [3] addresses T2, human CD73 on Calu6 cells (human, UniProt P21589 27-549).
T2 sequence (looked up): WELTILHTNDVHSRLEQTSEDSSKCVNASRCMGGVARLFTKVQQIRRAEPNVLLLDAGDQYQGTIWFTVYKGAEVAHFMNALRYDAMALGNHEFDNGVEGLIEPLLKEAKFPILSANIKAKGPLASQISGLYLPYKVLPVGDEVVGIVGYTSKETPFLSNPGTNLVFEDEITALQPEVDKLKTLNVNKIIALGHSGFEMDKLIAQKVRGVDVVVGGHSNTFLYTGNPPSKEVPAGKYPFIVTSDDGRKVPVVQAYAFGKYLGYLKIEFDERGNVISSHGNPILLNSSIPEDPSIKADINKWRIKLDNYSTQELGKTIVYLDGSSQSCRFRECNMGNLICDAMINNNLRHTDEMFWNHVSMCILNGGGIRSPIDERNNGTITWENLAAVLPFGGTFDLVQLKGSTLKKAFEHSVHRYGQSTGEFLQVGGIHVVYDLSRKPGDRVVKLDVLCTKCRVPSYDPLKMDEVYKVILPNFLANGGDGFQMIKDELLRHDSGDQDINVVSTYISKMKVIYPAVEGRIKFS
Put plainly: cell-based or functional assay.

The target of assay [4] is T1, hCD73-his (full length extracellular …). Put plainly: SEC, 5.5 uM each; peak 2: about 2:2 complexes. The procedure:
as §1, with “The oligomeric state of CD73/antibody complexes were examined by size-exclusion chromatography coupled to an in-line multi-angle light scattering detector (SEC-MALS). Isocratic” for “Isocratic”
as §2

For assay [5], the target named is T3, human GITR on cells (activated human T cells; 3A9-hGITR cells) (human, UniProt Q9Y5U5 26-241).
T3 sequence (looked up): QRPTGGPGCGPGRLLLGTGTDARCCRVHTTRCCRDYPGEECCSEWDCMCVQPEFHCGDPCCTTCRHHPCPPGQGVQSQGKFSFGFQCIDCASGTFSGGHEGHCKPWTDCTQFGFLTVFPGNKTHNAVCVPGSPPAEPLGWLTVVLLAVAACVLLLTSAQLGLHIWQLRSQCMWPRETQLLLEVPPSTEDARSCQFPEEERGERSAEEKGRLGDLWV
Put plainly: cell-based or functional assay.

Assay [6] concerns the target T2, human CD73 on Calu6 cells. Put plainly: cell-based or functional assay. The source holds these as a separate data set.
Assay [7] has as its target T4, N-hCD73-his (N-terminal domain of human CD73, residues 26-336) (human, UniProt P21589 26-336).
T4 construct: not shown: his tag
T4 sequence (looked up): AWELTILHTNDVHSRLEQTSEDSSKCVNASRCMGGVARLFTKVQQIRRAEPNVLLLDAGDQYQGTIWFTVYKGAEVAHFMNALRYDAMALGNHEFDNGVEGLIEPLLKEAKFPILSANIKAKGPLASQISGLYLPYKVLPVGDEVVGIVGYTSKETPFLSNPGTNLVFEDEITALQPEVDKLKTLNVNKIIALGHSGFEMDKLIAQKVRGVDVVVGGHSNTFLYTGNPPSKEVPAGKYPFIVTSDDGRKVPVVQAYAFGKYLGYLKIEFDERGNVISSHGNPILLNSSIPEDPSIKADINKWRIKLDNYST
Put plainly: SPR (Biacore T100), mAb captured on protein A, N-hCD73-his analyte. The procedure:
The affinity of the antibodies for human CD73 was measured to determine whether the change of the constant region affects them. The affinities were determined by Surface Plasmon Resonance (SPR) as follows. […] For these experiments, protein A (Pierce) was immobilized to a density of 3000-4000 RU on flow cells 1-4 of a CM5 sensor chip (GE Healthcare) using standard ethyl(dimethylaminopropyl) carbodiimide (EDC)/N-hydroxysuccinimide (NHS) chemistry, with ethanolamine blocking, in a running buffer of 0.01 M HEPES pH 7.4, 0.15 M NaCl, 3 mM EDTA, 0.005% v/v tween 20. […] The running buffer for the kinetic experiments was 10 mM sodium phosphate, 130 mM sodium chloride, 0.05% tween 20, pH 7.1. The surfaces were regenerated after each cycle using two 30 s pulses of 10 mM glycine pH 1.5 at a flow rate of 30 μl/min. Sensogram data was double-referenced and then fitted to a 1:1 Langmuir model using Biacore T100 evaluation software v2.0.4, to determine the association rate constant (ka), the dissociation rate constant (kd), and the equilibrium dissociation constant (KD).

In assay [8] the target is T2, human CD73 on Calu6 cells. Put plainly: cell-based or functional assay. The source holds these as a separate data set.

B1: CD73.4-IgG2.3-plusTHT (antibody)
heavy: QVQLVESGGGVVQPGRSLRLSCAASGFTFSNYGMHWVRQAPGKGLEWVAVILYDGSNKYYPDSVKGRFTISRDNSKNTLYLQMNSLRAEDTAVYYCARGGSSWYPDSFDIWGQGTMVTVSSASTKGPSVFPLAPCSRSTSESTAALGCLVKDYFPEPVTVSWNSGALTSGVHTFPAVLQSSGLYSLSSVVTVPSSNFGTQTYTCNVDHKPSNTKVDKTVERKSCVETHTCPPCPAPPVAGPSVFLFPPKPKDTLMISRTPEVTCVVVDVSHEDPEVQFNWYVDGVEVHNAKTKPREEQFNSTFRVVSVLTVVHQDWLNGKEYKCKVSNKGLPAPIEKTISKTKGQPREPQVYTLPPSREEMTKNQVSLTCLVKGFYPSDIAVEWESNGQPENNYKTTPPMLDSDGSFFLYSKLTVDKSRWQQGNVFSCSVMHEALHNHYTQKSLSLSPGK
light: not shown
For B1, the “UV % Peak4 (16.7-19.3 min)” value in assay [1] came out at 33.7%. In addition, in assay [2], the “UV % Peak1 (<12.9 min)” value was 30.6%. In assay [3], the “T1/2 (hr) of CD73 internalization, Calu6 cells” value turned out to be 0.355 h; the “T1/2 (hr) of CD73 internalization, NCI-H292 cells” value came to 0.293 h; the “Ymax (%) of CD73 internalization, Calu6 cells” value turned out to be 81.2%; the “Ymax (%) of CD73 internalization, NCI-H292 cells” value was determined as 91.4%.

B2: CD73.4-IgG2.3G1-KH (antibody)
heavy: QVQLVESGGGVVQPGRSLRLSCAASGFTFSNYGMHWVRQAPGKGLEWVAVILYDGSNKYYPDSVKGRFTISRDNSKNTLYLQMNSLRAEDTAVYYCARGGSSWYPDSFDIWGQGTMVTVSSASTKGPSVFPLAPCSRSTSESTAALGCLVKDYFPEPVTVSWNSGALTSGVHTFPAVLQSSGLYSLSSVVTVPSSNFGTQTYTCNVDHKPSNTKVDKTVERKSCVECPPCPAPPVAGPSVFLFPPKPKDTLMISRTPEVTCVVVDVSHEDPEVKFNWYVDGVEVHNAKTKPREEQYNSTYRVVSVLTVLHQDWLNGKEYKCKVSNKALPAPIEKTISKAKGQPREPQVYTLPPSREEMTKNQVSLTCLVKGFYPSDIAVEWESNGQPENNYKTTPPVLDSDGSFFLYSKLTVDKSRWQQGNVFSCSVMHEALHNHYTQKSLSLSPGK
light: not shown
As for B2, the “UV % Peak1 (<12.9 min)” value in assay [2] came to 34.9%. Further, in assay [3], the “T1/2 (hr) of CD73 internalization, Calu6 cells” value amounted to 0.396 h; the “T1/2 (hr) of CD73 internalization, NCI-H292 cells” value came to 0.28 h; the “Ymax (%) of CD73 internalization, Calu6 cells” value came out at 81.6%; the “Ymax (%) of CD73 internalization, NCI-H292 cells” value was 91.6%. Also, the “UV % Peak2 (12.9-15.1 min)” value in assay [4] was 23.4%.

B3: anti-GITR-IgG2 (antibody)
heavy: QVQLVESGGGVVQPGRSLRLSCAASGFTFSSYGMHWVRQAPGKGLEWVAVIWYEGSNKYYADSVKGRFTISRDNSKNTLYLQMNSLRAEDTAVYYCARGGSMVRGDYYYGMDVWGQGTTVTVSSASTKGPSVFPLAPCSRSTSESTAALGCLVKDYFPEPVTVSWNSGALTSGVHTFPAVLQSSGLYSLSSVVTVPSSNFGTQTYTCNVDHKPSNTKVDKTVERKCCVECPPCPAPPVAGPSVFLFPPKPKDTLMISRTPEVTCVVVDVSHEDPEVQFNWYVDGVEVHNAKTKPREEQFNSTFRVVSVLTVVHQDWLNGKEYKCKVSNKGLPAPIEKTISKTKGQPREPQVYTLPPSREEMTKNQVSLTCLVKGFYPSDIAVEWESNGQPENNYKTTPPMLDSDGSFFLYSKLTVDKSRWQQGNVFSCSVMHEALHNHYTQKSLSLSPGK
light: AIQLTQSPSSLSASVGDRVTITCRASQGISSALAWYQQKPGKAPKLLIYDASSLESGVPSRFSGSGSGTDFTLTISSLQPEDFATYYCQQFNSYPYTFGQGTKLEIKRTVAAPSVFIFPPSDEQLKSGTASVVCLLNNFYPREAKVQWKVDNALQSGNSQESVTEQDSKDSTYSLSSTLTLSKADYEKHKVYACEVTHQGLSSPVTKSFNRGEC
For B3, in assay [5], the “EC50 (nM), phospho-p65 NFkB signaling, CD4+ T cells” value was 12.8 nM; the “EC50 (nM), phospho-p65 NFkB signaling, CD8+ T cells” value turned out to be 9 nM; the “Emax (%), phospho-p65 NFkB signaling, CD4+ T cells” value is 69%; the “Emax (%), phospho-p65 NFkB signaling, CD8+ T cells” value worked out at 85%.

B4: CD73.10-IgG2-C219S-IgG1.1 (antibody)
heavy: QVQLVESGGGVVQPGRSLRLSCAASGFTFSNYGMHWVRQAPGKGLEWVAVIWYDESNKYYPDSVKGRFTISRDNSKNTLYLQMNSLRAEDTAVYYCARGGSSWYPDSFDIWGQGTMVTVSSASTKGPSVFPLAPCSRSTSESTAALGCLVKDYFPEPVTVSWNSGALTSGVHTFPAVLQSSGLYSLSSVVTVPSSNFGTQTYTCNVDHKPSNTKVDKTVERKSCVECPPCPAPPVAGPSVFLFPPKPKDTLMISRTPEVTCVVVDVSHEDPEVKFNWYVDGVEVHNAKTKPREEQYNSTYRVVSVLTVLHQDWLNGKEYKCKVSNKALPSSIEKTISKAKGQPREPQVYTLPPSREEMTKNQVSLTCLVKGFYPSDIAVEWESNGQPENNYKTTPPMLDSDGSFFLYSKLTVDKSRWQQGNVFSCSVMHEALHNHYTQKSLSLSPG
light: not shown
notes: anti-CD73; also called CD73.10-IgG2CS-IgG1.1f
On to B4, for which, in assay [6], the “% internalization, Calu6 cells” value is 91%; the “% internalization, H228 cells” value worked out at 92%; the “% internalization, H2030 cells” value is 87%; the “% internalization, HCC15 cells” value came to 91%. In addition, in assay [6], the “T1/2 min of internalization, Calu6 cells” value is 3.1 min; the “T1/2 min of internalization, H228 cells” value was found to be 9.4 min; the “T1/2 min of internalization, H2030 cells” value was 4.3 min; the “T1/2 min of internalization, HCC15 cells” value amounted to 3 min. Moreover, in assay [7], the dissociation constant (Kd) was 5.7 nM and 6.8 nM; the koff was 0.0014 s⁻¹ and 0.0016 s⁻¹; the association rate constant (kon) was 240000 M⁻¹ s⁻¹ and 230000 M⁻¹ s⁻¹. In addition, in assay [8], the “EC50 (nM) of CD73 internalization, Calu6 cells, 2 h” value came to 0.87 nM and the “Ymax of CD73 internalization (% of 100 nM 11F11)” value turned out to be 99%.

These data come from patent publication US20200268901A1 (Bristol-Myers Squibb, published 2020).
